Patent US20220242939A1 (BIOARCTIC, published 2022)
Non-standard residues stand in square brackets, D forms with d. No end group written: not given here. Ahx = NCCCCCC(=O)O

What was measured:
[1] = biological target: 15F8, monoclonal anti-L198 antibody; experiment: inhibition ELISA: antigen in solution varied, antibody 15F8 at 0.05 µg/ml, plate coated with L198-BSA peptide
Method: (§1) 0.5 μg/ml solution of N-terminal neo-epitope peptide L198 (SEQ ID NO:52) conjugated to BSA was prepared by dilution in PBS. 50 μl/well were added to an ELISA half-area 96 well microtiter plate, the plate was sealed with adhesive sealer and incubated over night at 4° C. After discarding the solution, the plates were blocked with protein-free blocking solution (Pierce) (150 μl/well) at room temperature for 90 min with shaking (900 rpm). The blocked plate was washed four times with washing buffer containing 0.28 mM NaH₂PO₄, 2.5 mM Na₂HPO₄, 150 mM NaCl, 0.1% TWEEN®-20 and 0.0075% Kathon CG.
(§2) Serial dilutions of each synthetic ApoE peptide were prepared by 4-fold dilution starting from 10000 ng/ml in 96 well storage plates (30 μl final volume). Each recombinant antibody to be tested was added (30 μl) to the serial dilutions of each of the synthetic ApoE peptides at a final concentration of 0.05 μg/ml per well. Samples were pre-incubated for 45 min at room temperature with shaking (900 rpm).
(§3) The pre-incubated samples were transferred (50 μl/well) to the blocked ELISA plates, and plates were incubated for 10 min at room temperature without shaking. […] Alkaline phosphatase substrate (50 μl/well) was added to the plate and the optical density was read every 10 min at a wavelength of 405 nm for up to 120 min. The IC50 values were determined from a log inhibitor concentration response curve (FIG. 25).

[2] = biological target: 8B3, monoclonal anti-L198 antibody; experiment: inhibition ELISA: antigen in solution varied, antibody 8B3 at 0.05 µg/ml, plate coated with L198-BSA peptide
Method: as §1, §2, §3

[3] = biological target: 12B1, monoclonal anti-L198 antibody; experiment: inhibition ELISA: antigen in solution varied, antibody 12B1 at 0.05 µg/ml, plate coated with L198-BSA peptide
Method: as §1, §2, §3

[4] = biological target: 36A12, monoclonal anti-A199 antibody; experiment: inhibition ELISA; antibody at 0.05 ug/ml pre-incubated with the peptide in solution (4-fold dilutions from 10000 ng/ml), then on a plate coated with A199-BSA peptide; blank reduced OD 405 nm
Method: as §1, with “A199” for “L198”, “NO:51)” for “NO:52)”
as §2, with “purified monoclonal” for “recombinant”
(§4) The pre-incubated samples were transferred (50 μl/well) to the blocked ELISA plates, and plates were incubated for 10 min at room temperature without shaking. Plates were washed as described above. Alkaline phosphatase conjugated anti-mouse IgG detection antibody (Mabtech, cat. no. 3310-4) was diluted 1:1000 and added to each plate (50 μl/well). The plate was sealed and incubated with shaking (900 rpm) for 45 min at room temperature and subsequently washed as described above. Alkaline phosphatase substrate (50 μl/well) was added to the plate and the optical density was read every 10 min at a wavelength of 405 nm for up to 120 min. The IC50 values were determined from a log inhibitor concentration response curve (FIG. 29).

[5] = biological target: 38G9, monoclonal anti-A199 antibody; experiment: as above
Method: as §1, with “A199” for “L198”, “NO:51)” for “NO:52)”
as §2, with “purified monoclonal” for “recombinant”
as §4

[6] = biological target: 63F6, monoclonal anti-A199 antibody; experiment: as above
Method: as §1, with “A199” for “L198”, “NO:51)” for “NO:52)”
as §2, with “purified monoclonal” for “recombinant”
as §4

[7] = biological target: 6F4, monoclonal anti-L198 antibody; experiment: inhibition ELISA: antigen in solution varied, antibody 6F4 at 0.05 µg/ml, plate coated with L198-BSA peptide
Method: as §1, §2, §3

[8] = biological target: 17G4, recombinant IgG2c antibody; experiment: inhibition ELISA; antibody at 0.05 ug/ml pre-incubated with the antigen in solution (3-fold dilutions from 1000 ng/ml), then on a plate coated with G200-BSA peptide; blank reduced OD 405 nm
Method: as §2, with “[…]” for “Serial”, “peptide, recombinant C-terminal ApoE fragment G200-HIS and full-length ApoE4” for “peptide”, “1000” for “10000”, “peptides, G200-HIS or full-length ApoE4” for “peptides”
as §4, with “for 25” for “for 10”, “every 15” for “every 10”, “(FIG. 17).” for “(FIG. 29).”

[9] = biological target: 7C7, recombinant IgG2c antibody; experiment: as above
Method: as §2, with “[…]” for “Serial”, “peptide, recombinant C-terminal ApoE fragment G200-HIS and full-length ApoE4” for “peptide”, “1000” for “10000”, “peptides, G200-HIS or full-length ApoE4” for “peptides”
as §4, with “for 25” for “for 10”, “every 15” for “every 10”, “(FIG. 17).” for “(FIG. 29).”

[10] = biological target: 28F2, recombinant IgG2c antibody; experiment: as above
Method: as §2, with “[…]” for “Serial”, “peptide, recombinant C-terminal ApoE fragment G200-HIS and full-length ApoE4” for “peptide”, “1000” for “10000”, “peptides, G200-HIS or full-length ApoE4” for “peptides”
as §4, with “for 25” for “for 10”, “every 15” for “every 10”, “(FIG. 17).” for “(FIG. 29).”

[11] = biological target: 23D5, recombinant IgG2c antibody; experiment: as above
Method: as §2, with “[…]” for “Serial”, “peptide, recombinant C-terminal ApoE fragment G200-HIS and full-length ApoE4” for “peptide”, “1000” for “10000”, “peptides, G200-HIS or full-length ApoE4” for “peptides”
as §4, with “for 25” for “for 10”, “every 15” for “every 10”, “(FIG. 17).” for “(FIG. 29).”

[12] = biological target: T1, 7B10, recombinant IgG2c antibody; experiment: as above
T1 construct: also called 7610
Method: as §2, with “[…]” for “Serial”, “peptide, recombinant C-terminal ApoE fragment G200-HIS and full-length ApoE4” for “peptide”, “1000” for “10000”, “peptides, G200-HIS or full-length ApoE4” for “peptides”
as §4, with “for 25” for “for 10”, “every 15” for “every 10”, “(FIG. 17).” for “(FIG. 29).”

[13] = biological target: 15H11, monoclonal anti-L198 antibody; experiment: inhibition ELISA: antigen in solution varied, antibody 15H11 at 0.05 µg/ml, plate coated with L198-BSA peptide
Method: as §1, §2, §3

[14] = biological target: 17G4, recombinant IgG2c antibody; experiment: inhibition ELISA, second protocol; antibody at 0.05 ug/ml pre-incubated with the peptide in solution (4-fold dilutions from 10000 ng/ml), then on a plate coated with G200-BSA peptide; blank reduced OD 405 nm
Method: as §2, with “[…]” for “Serial”, “peptide, recombinant C-terminal ApoE fragment G200-HIS and full-length ApoE4” for “peptide”, “1000” for “10000”, “peptides, G200-HIS or full-length ApoE4” for “peptides”
as §4, with “for 25” for “for 10”, “every 15” for “every 10”, “(FIG. 17).” for “(FIG. 29).”
(§5) In addition, a second inhibition ELISA with the ApoE peptides conjugated to BSA was run, in which the starting concentration of the antigens in solution was increased 10-fold. i.e. the starting concentration of the N-terminal neo-epitope of synthetic ApoE peptides conjugated to BSA and starting at amino acid L198 (SEQ ID NO:52), A199 (SEQ ID NO:51) or G200 (SEQ ID NO:50), or to BSA-conjugated negative control peptide (SEQ ID NO:53), was 10000 ng/ml. Furthermore, a 4-fold serial dilution of antigen was used, the plates were blocked with protein-free blocking solution (Pierce) for 90 min, the pre-incubated samples were incubated on the coated plates for 10 min (instead of 25 min), and the optical density was read every 10 min (instead of every 15 min). IC50 values were determined from a log inhibitor concentration response curve (FIG. 20).

[15] = biological target: 7C7, recombinant IgG2c antibody; experiment: as above
Method: as §2, with “[…]” for “Serial”, “peptide, recombinant C-terminal ApoE fragment G200-HIS and full-length ApoE4” for “peptide”, “1000” for “10000”, “peptides, G200-HIS or full-length ApoE4” for “peptides”
as §4, with “for 25” for “for 10”, “every 15” for “every 10”, “(FIG. 17).” for “(FIG. 29).”
as §5

[16] = biological target: 28F2, recombinant IgG2c antibody; experiment: as above
Method: as §2, with “[…]” for “Serial”, “peptide, recombinant C-terminal ApoE fragment G200-HIS and full-length ApoE4” for “peptide”, “1000” for “10000”, “peptides, G200-HIS or full-length ApoE4” for “peptides”
as §4, with “for 25” for “for 10”, “every 15” for “every 10”, “(FIG. 17).” for “(FIG. 29).”
as §5

[17] = biological target: 23D5, recombinant IgG2c antibody; experiment: as above
Method: as §2, with “[…]” for “Serial”, “peptide, recombinant C-terminal ApoE fragment G200-HIS and full-length ApoE4” for “peptide”, “1000” for “10000”, “peptides, G200-HIS or full-length ApoE4” for “peptides”
as §4, with “for 25” for “for 10”, “every 15” for “every 10”, “(FIG. 17).” for “(FIG. 29).”
as §5

[18] = biological target: T1, 7B10, recombinant IgG2c antibody; experiment: as above
Method: as §2, with “[…]” for “Serial”, “peptide, recombinant C-terminal ApoE fragment G200-HIS and full-length ApoE4” for “peptide”, “1000” for “10000”, “peptides, G200-HIS or full-length ApoE4” for “peptides”
as §4, with “for 25” for “for 10”, “every 15” for “every 10”, “(FIG. 17).” for “(FIG. 29).”
as §5

[19] = biological target: 6F4, monoclonal anti-L198 antibody; experiment: inhibition ELISA; antibody at 0.05 ug/ml pre-incubated with the peptide in solution (4-fold dilutions from 10000 ng/ml), then on a plate coated with L198-BSA peptide; blank reduced OD 405 nm
Method: as §1, §2
as §4, with “25).” for “29).”

38G9, monoclonal anti-A199 antibody, sequence (VH, as listed by the source, chain 1 of 2): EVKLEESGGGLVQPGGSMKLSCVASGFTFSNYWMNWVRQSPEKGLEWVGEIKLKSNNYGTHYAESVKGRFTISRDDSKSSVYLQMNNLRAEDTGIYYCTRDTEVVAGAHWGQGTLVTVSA
38G9, monoclonal anti-A199 antibody, sequence (VL, as listed by the source, chain 2 of 2): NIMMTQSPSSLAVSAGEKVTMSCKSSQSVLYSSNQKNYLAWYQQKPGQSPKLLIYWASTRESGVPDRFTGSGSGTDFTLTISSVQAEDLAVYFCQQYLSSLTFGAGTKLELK
28F2, recombinant IgG2c antibody, sequence (VH, as listed by the source, chain 1 of 2): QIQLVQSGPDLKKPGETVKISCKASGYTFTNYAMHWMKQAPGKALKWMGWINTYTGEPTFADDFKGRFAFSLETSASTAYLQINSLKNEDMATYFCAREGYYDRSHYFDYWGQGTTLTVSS
28F2, recombinant IgG2c antibody, sequence (VL, as listed by the source, chain 2 of 2): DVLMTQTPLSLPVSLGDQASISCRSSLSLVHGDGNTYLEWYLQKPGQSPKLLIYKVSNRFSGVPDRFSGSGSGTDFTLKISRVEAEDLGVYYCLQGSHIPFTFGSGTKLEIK
T1 sequence (VH, as listed by the source, chain 1 of 2): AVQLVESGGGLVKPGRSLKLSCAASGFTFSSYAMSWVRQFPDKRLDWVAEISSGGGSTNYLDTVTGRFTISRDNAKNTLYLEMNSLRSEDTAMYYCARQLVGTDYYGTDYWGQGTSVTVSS
T1 sequence (VL, as listed by the source, chain 2 of 2): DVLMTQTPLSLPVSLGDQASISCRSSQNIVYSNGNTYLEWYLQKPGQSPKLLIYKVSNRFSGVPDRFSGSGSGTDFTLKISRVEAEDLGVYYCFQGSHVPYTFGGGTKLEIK
6F4, monoclonal anti-L198 antibody, sequence (VH, as listed by the source, chain 1 of 2): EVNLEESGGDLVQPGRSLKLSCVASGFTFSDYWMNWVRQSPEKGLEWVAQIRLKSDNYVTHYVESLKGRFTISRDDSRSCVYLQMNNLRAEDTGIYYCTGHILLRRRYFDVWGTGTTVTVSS
6F4, monoclonal anti-L198 antibody, sequence (VL, as listed by the source, chain 2 of 2): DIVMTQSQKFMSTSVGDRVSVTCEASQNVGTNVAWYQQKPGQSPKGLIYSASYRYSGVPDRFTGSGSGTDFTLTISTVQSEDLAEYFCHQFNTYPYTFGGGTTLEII
7C7, recombinant IgG2c antibody, sequence (VH, as listed by the source, chain 1 of 2): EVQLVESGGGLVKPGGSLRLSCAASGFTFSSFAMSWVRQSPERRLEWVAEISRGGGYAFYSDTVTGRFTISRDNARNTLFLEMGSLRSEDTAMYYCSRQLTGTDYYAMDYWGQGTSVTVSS
7C7, recombinant IgG2c antibody, sequence (VL, as listed by the source, chain 2 of 2): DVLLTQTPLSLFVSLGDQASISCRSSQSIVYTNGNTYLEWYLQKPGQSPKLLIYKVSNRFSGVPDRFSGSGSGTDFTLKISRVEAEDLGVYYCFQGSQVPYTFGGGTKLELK
36A12, monoclonal anti-A199 antibody, sequence (VH, as listed by the source, chain 1 of 2): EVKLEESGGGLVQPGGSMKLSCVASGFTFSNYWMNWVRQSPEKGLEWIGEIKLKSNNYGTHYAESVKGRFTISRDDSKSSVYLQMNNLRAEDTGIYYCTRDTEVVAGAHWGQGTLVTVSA
36A12, monoclonal anti-A199 antibody, sequence (VL, as listed by the source, chain 2 of 2): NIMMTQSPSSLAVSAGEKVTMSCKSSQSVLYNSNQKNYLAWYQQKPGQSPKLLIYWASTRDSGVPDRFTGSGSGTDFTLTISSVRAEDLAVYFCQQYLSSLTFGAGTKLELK
23D5, recombinant IgG2c antibody, sequence (VH, as listed by the source, chain 1 of 2): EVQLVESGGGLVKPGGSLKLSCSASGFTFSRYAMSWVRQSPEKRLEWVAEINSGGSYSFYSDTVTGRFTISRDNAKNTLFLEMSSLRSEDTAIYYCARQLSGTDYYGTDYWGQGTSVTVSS
23D5, recombinant IgG2c antibody, sequence (VL, as listed by the source, chain 2 of 2): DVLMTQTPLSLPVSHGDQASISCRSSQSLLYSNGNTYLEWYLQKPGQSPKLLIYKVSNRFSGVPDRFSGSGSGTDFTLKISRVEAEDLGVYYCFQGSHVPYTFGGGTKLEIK
17G4, recombinant IgG2c antibody, sequence (VH, as listed by the source, chain 1 of 2): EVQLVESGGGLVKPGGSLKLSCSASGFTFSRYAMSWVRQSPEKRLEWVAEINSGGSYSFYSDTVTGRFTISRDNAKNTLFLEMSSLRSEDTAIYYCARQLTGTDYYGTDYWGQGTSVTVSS
15H11, monoclonal anti-L198 antibody, sequence (VH, as listed by the source, chain 1 of 2): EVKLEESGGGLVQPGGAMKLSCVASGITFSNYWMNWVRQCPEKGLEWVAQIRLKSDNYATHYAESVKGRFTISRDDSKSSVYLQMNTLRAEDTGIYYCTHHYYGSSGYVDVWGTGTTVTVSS
15H11, monoclonal anti-L198 antibody, sequence (VL, as listed by the source, chain 2 of 2): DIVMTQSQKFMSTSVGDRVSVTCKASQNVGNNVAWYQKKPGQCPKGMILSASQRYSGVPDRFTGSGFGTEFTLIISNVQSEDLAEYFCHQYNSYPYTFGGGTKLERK
15F8, monoclonal anti-L198 antibody, sequence (VH, as listed by the source, chain 1 of 2): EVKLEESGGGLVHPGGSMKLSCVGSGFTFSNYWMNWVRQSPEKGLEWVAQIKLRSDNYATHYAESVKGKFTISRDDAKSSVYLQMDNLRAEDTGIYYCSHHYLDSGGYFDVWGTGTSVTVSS
15F8, monoclonal anti-L198 antibody, sequence (VL, as listed by the source, chain 2 of 2): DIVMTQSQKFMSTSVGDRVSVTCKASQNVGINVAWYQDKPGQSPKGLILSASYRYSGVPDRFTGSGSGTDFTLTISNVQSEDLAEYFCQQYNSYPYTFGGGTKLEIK
12B1, monoclonal anti-L198 antibody, sequence (VH, as listed by the source, chain 1 of 2): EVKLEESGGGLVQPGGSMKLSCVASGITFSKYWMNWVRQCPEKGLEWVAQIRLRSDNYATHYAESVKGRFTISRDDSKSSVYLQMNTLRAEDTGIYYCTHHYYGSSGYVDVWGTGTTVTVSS
12B1, monoclonal anti-L198 antibody, sequence (VL, as listed by the source, chain 2 of 2): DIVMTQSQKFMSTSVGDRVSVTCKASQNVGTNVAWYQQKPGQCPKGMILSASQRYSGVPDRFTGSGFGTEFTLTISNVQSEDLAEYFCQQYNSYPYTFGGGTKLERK
8B3, monoclonal anti-L198 antibody, sequence (VH, as listed by the source, chain 1 of 2): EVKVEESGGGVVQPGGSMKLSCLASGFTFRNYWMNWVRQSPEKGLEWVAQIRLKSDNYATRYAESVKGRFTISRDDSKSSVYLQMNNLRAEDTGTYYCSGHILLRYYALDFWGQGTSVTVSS
8B3, monoclonal anti-L198 antibody, sequence (VL, as listed by the source, chain 2 of 2): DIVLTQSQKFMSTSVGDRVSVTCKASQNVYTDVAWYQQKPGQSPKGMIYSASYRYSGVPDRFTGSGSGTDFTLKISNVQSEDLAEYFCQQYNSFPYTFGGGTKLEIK
63F6, monoclonal anti-A199 antibody, sequence (VH, as listed by the source, chain 1 of 2): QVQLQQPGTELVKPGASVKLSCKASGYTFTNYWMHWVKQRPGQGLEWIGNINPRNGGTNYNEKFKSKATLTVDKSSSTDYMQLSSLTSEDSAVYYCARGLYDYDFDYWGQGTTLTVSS
63F6, monoclonal anti-A199 antibody, sequence (VL, as listed by the source, chain 2 of 2): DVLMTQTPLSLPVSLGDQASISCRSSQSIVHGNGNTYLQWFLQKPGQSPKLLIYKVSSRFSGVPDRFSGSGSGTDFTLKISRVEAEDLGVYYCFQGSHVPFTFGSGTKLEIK

IC50 [1] | IC50 [2] | IC50 [3] | binding result [4] | binding result [5] | binding result [6] | IC50 [7] | binding result [8] | binding result [9] | binding result [10] | binding result [11] | binding result [12] | IC50 [13] | binding result [14] | binding result [15] | binding result [16] | binding result [17] | binding result [18] | binding result [19] | Binder
6.5 ng/mL | 3.1 ng/mL | 4.8 ng/mL | no binding (tested: 10000 ng/ml) | no binding (tested: 10000 ng/ml) | no binding (tested: 10000 ng/ml) | 8.2 ng/mL | no binding (tested: 1000 ng/ml) | no binding (tested: 1000 ng/ml) | no binding (tested: 1000 ng/ml) | no binding (tested: 1000 ng/ml) | no binding (tested: 1000 ng/ml) | 4.5 ng/mL | – | – | – | – | – | – | LAGQPL[Ahx]C (not fully specified (residue 8); printed as LAGQPL-Acp-C; also: C-terminal Cys conjugated to BSA carrier, BSA carrier; also called L198-BSA peptide) [L198 N-terminal neo-epitope peptide LAGQPL-Acp-C (SEQ ID NO:52) conjugated to BSA]
– | – | – | no binding (tested: 10000 ng/ml) | no binding (tested: 10000 ng/ml) | – | – | – | – | – | – | – | – | no binding (tested: 10000 ng/ml) | no binding (tested: 10000 ng/ml) | no binding (tested: 10000 ng/ml) | no binding (tested: 10000 ng/ml) | no binding (tested: 10000 ng/ml) | no binding (tested: 10000 ng/ml) | AATVGSLAGQPLQER[Ahx]C (not fully specified (residue 17); printed as AATVGSLAGQPLQER-Acp-C; also: C-terminal Cys conjugated to BSA carrier, BSA carrier; also called 192-206 BSA-conjugated peptide) [negative control peptide AATVGSLAGQPLQER-Acp-C (SEQ ID NO:53) conjugated to BSA]
